Data from article PMC10491969 (Journal of Advanced Research, 2022).

Molecular target: T1, Recombinant human TRAF2 protein (human, UniProt Q12933 1-501)
T1 sequence (looked up): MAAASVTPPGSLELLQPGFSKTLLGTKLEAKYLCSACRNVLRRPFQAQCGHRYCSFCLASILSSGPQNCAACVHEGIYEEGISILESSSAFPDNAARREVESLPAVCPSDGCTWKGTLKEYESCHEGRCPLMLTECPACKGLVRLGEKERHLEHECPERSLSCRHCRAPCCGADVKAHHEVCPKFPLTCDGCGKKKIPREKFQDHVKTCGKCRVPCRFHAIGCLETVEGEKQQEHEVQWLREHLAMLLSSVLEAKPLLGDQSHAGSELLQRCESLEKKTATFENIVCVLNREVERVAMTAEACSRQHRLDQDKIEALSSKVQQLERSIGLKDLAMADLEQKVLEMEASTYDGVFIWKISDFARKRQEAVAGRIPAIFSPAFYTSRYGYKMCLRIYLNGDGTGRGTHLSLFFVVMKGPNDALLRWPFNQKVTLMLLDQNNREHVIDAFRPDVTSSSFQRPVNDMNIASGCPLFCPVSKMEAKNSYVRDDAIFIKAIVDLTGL
Experiment: SPR

Kd: 502 nM
B1: Recombinant human STING protein (natural protein, UniProt Q86WV6 135-379, looked up)
chain: GLKGLAPAEISAVCEKGNFNVAHGLAWSYYIGYLRLILPELQARIRTYNQHYNNLLRGAVSQRLYILLPLDCGVPDNLSMADPNIRFLDKLPQQTGDHAGIKDRVYSNSIYELLENGQRAGTCVLEYATPLQTLFAMSQYSQAGFSREDRLEQAKLFCRTLEDILADAPESQNNCRLIAYQEPADDSSFSLSQEVLRHLRQEEKEEVTVGSLKTSAVPSTSTMSQEPELLISGMEKPLPLRTDFS
